B1: Hammerhead Ribozyme (parent)
chain: ACCGGAUGUGCUUUCCGGUCUGAUGAGUCCGUGAGGACGAAACAG

Variants of: B1
Assay: self-cleavage, relative activity (ratio to wild type); higher = more cleavage; co-transcriptional

Variant | self-cleavage
G22A G27C | 0.39
G22A G27A | 0.342
G22A G27U | 0.28
A23G A26U | 0.3
A23G A26C | 0.263
A23G A26G | 0.327
G22A C30G | 0.343
G22A C30U | 0.417
G22A C30A | 0.392
A23C A40U | 0.243
A23C A40C | 0.31
A23C A40G | 0.351
G22C A42C | 0.309
G22C A42U | 0.368
G22C A42G | 0.265
A23C G45A | 0.302
A23C G45C | 0.376
A23C G45U | 0.377
G22U U32G | 0.299
G22U U32A | 0.282
G22U U32C | 0.272
A23G C43G | 0.35
A23G C43U | 0.269
A23G C43A | 0.304

Variant | self-cleavage
G22C G35C | 0.336
G22C G35A | 0.337
G22C G35U | 0.303
G22U A37C | 0.3
G22U A37U | 0.296
G22U A37G | 0.417
A23C G35A | 0.397
A23C G35C | 0.408
A23C G35U | 0.408
A23C U28G | 0.398
A23C U28A | 0.262
A23C U28C | 0.352
G22A U28C | 0.294
G22A U28G | 0.37
G22A U28A | 0.326
G22C A26C | 0.3
G22C A26G | 0.253
G22C A26U | 0.343
A23G G33A | 0.465
A23G G33C | 0.376
A23G G33U | 0.458
G22A C29G | 0.332
G22A C29A | 0.342
G22A C29U | 0.279

Variant | self-cleavage
G22A A44G | 0.672
G22A A44C | 0.372
G22A A44U | 0.314
G22U A41C | 0.372
G22U A41U | 0.353
G22U A41G | 0.311
A23C A42G | 0.392
A23C A42C | 0.31
A23C A42U | 0.331
G22C G45C | 0.424
G22C G45U | 0.384
G22C G45A | 0.328
G22U A42G | 0.285
G22U A42U | 0.36
G22U A42C | 0.359
A23G G45C | 0.33
A23G G45A | 0.331
A23G G45U | 0.297
G22A G25U | 0.376
G22A G25A | 0.377
G22A G25C | 0.329
G22A G36A | 0.361
G22A G36C | 0.309
G22A G36U | 0.344

Variant | self-cleavage
G22U G31A | 0.397
G22U G31C | 0.303
G22U G31U | 0.318
G22U G25U | 0.303
G22U G25C | 0.264
G22U G25A | 0.269
G22A A23U | 0.343
G22A A23G | 0.313
G22A A23C | 0.224
A23C G36A | 0.412
A23C G36U | 0.335
A23C G36C | 0.351
G22A A26G | 0.269
G22A A26C | 0.316
G22A A26U | 0.338
G22C G31A | 0.25
G22C G31C | 0.37
G22C G31U | 0.309
A23G G36C | 0.291
A23G G36A | 0.34
A23G G36U | 0.403
A23C G31C | 0.533
A23C G31U | 0.647
A23C G31A | 0.68

Variant | self-cleavage
G22U G39U | 0.305
G22U G39A | 0.35
G22U G39C | 0.316
G22A G39U | 0.325
G22A G39C | 0.385
G22A G39A | 0.367
A23C C43G | 0.274
A23C C43A | 0.343
A23C C43U | 0.325
G22A G35A | 0.336
G22A G35U | 0.328
G22A G35C | 0.294
G22A A42U | 0.321
G22A A42G | 0.351
G22A A42C | 0.335
A23G A41G | 0.334
A23G A41C | 0.34
A23G A41U | 0.298
A23C C38A | 0.327
A23C C38U | 0.316
A23C C38G | 0.371
G22U A40U | 0.332
G22U A40G | 0.288
G22U A40C | 0.368

Variant | self-cleavage
G22A C38G | 0.329
G22A C38U | 0.328
G22A C38A | 0.327
G22U G27U | 0.273
G22U G27C | 0.347
G22U G27A | 0.305
G22C G25C | 0.319
G22C G25A | 0.409
G22C G25U | 0.432
G22C U32C | 0.335
G22C U32G | 0.315
G22C U32A | 0.371
G22C A40G | 0.351
G22C A40C | 0.339
G22C A40U | 0.342
A23G A42U | 0.335
A23G A42C | 0.31
A23G A42G | 0.324
G22A G31C | 0.396
G22A G31A | 0.337
G22A G31U | 0.427
G22U G33U | 0.416
G22U G33A | 0.307
G22U G33C | 0.363

Variant | self-cleavage
A23G A37U | 0.28
A23G A37C | 0.3
A23G A37G | 0.314
A23G C38G | 0.311
A23G C38A | 0.328
A23G C38U | 0.394
A23C U32A | 0.466
A23C U32G | 0.383
A23C U32C | 0.509
G22U A44G | 0.711
G22U A44U | 0.335
G22U A44C | 0.432
G22U G45U | 0.428
G22U G45A | 0.345
G22U G45C | 0.348
A23C C29U | 0.337
A23C C29G | 0.369
A23C C29A | 0.267
A23G G31A | 0.403
A23G G31C | 0.442
A23G G31U | 0.448
G22C A44U | 0.323
G22C A44C | 0.369
G22C A44G | 0.672

Variant | self-cleavage
A23C A41C | 0.313
A23C A41G | 0.394
A23C A41U | 0.361
A23G G39U | 0.347
A23G G39C | 0.33
A23G G39A | 0.301
G22C C38A | 0.329
G22C C38G | 0.386
G22C C38U | 0.315
A23G G35C | 0.279
A23G G35A | 0.38
A23G G35U | 0.316
G22U U24C | 0.348
G22U U24G | 0.361
G22U U24A | 0.316
A23C C30U | 0.578
A23C C30G | 0.354
A23C C30A | 0.306
G22C G39C | 0.375
G22C G39A | 0.364
G22C G39U | 0.286
G22A U32G | 0.264
G22A U32C | 0.29
G22A U32A | 0.306

Variant | self-cleavage
G22C G27U | 0.352
G22C G27A | 0.359
G22C G27C | 0.311
G22A C43A | 0.411
G22A C43U | 0.318
G22A C43G | 0.288
G22C G33A | 0.266
G22C G33C | 0.381
G22C G33U | 0.374
A23C G25A | 0.331
A23C G25C | 0.37
A23C G25U | 0.298
G22C A41C | 0.321
G22C A41G | 0.31
G22C A41U | 0.416
G22C G36U | 0.322
G22C G36A | 0.317
G22C G36C | 0.317
G22A A34C | 0.286
G22A A34U | 0.309
G22A A34G | 0.365
A23C G27A | 0.341
A23C G27U | 0.256
A23C G27C | 0.328

Variant | self-cleavage
G22U C29U | 0.251
G22U C29A | 0.299
G22U C29G | 0.317
G22U C38U | 0.335
G22U C38A | 0.305
G22U C38G | 0.33
A23C U24G | 0.464
A23C U24C | 0.505
A23C U24A | 0.397
G22U U28A | 0.326
G22U U28C | 0.312
G22U U28G | 0.294
G22C C30U | 0.36
G22C C30A | 0.346
G22C C30G | 0.351
A23G C29U | 0.356
A23G C29A | 0.319
A23G C29G | 0.26
G22U A34U | 0.327
G22U A34C | 0.267
G22U A34G | 0.308
G22U G35A | 0.335
G22U G35U | 0.366
G22U G35C | 0.311

Variant | self-cleavage
A23C G33U | 0.659
A23C G33C | 0.479
A23C G33A | 0.621
G22U G36A | 0.316
G22U G36C | 0.363
G22U G36U | 0.301
G22C A37G | 0.416
G22C A37C | 0.286
G22C A37U | 0.259
A23G C30U | 0.485
A23G C30A | 0.305
A23G C30G | 0.248
A23G G27U | 0.282
A23G G27A | 0.297
A23G G27C | 0.285
A23C A34G | 0.342
A23C A34C | 0.374
A23C A34U | 0.298
G22A G45C | 0.436
G22A G45U | 0.383
G22A G45A | 0.369
G22A A37G | 0.285
G22A A37U | 0.288
G22A A37C | 0.304

Variant | self-cleavage
A23G A44U | 0.339
A23G A44G | 0.55
A23G A44C | 0.353
A23G A34C | 0.338
A23G A34G | 0.35
A23G A34U | 0.364
G22C A23U | 0.351
G22C A23C | 0.28
G22C A23G | 0.312
G22U C43U | 0.305
G22U C43G | 0.348
G22U C43A | 0.293
G22A A41C | 0.383
G22A A41G | 0.365
G22A A41U | 0.318
A23G G25U | 0.321
A23G G25A | 0.311
A23G G25C | 0.333
A23C G39C | 0.357
A23C G39U | 0.371
A23C G39A | 0.298
G22A G33A | 0.353
G22A G33C | 0.317
G22A G33U | 0.3

Variant | self-cleavage
G22U C30A | 0.296
G22U C30U | 0.344
G22U C30G | 0.277
G22U A23C | 0.284
G22U A23U | 0.307
G22U A23G | 0.297
A23C A26G | 0.212
A23C A26U | 0.33
A23C A26C | 0.376
A23G A40U | 0.326
A23G A40C | 0.355
A23G A40G | 0.306
A23G | 0.439
A23C | 0.547
G22U A26U | 0.315
G22U A26G | 0.346
G22U A26C | 0.345
G22C U28A | 0.351
G22C U28C | 0.298
G22C U28G | 0.293
G22C C29G | 0.266
G22C C29U | 0.3
G22C C29A | 0.296
G22C | 0.336

Variant | self-cleavage
G22U | 0.362
G22C C43G | 0.24
G22C C43A | 0.23
G22C C43U | 0.391
A23C A44G | 0.896
A23C A44U | 0.227
A23C A44C | 0.39
G22A A40G | 0.297
G22A A40C | 0.371
G22A A40U | 0.366
G22C U24G | 0.281
G22C U24C | 0.348
G22C U24A | 0.365
G22C A34C | 0.283
G22C A34G | 0.306
G22C A34U | 0.318
A23C A37C | 0.384
A23C A37U | 0.42
A23C A37G | 0.237
G22A U24G | 0.363
G22A U24C | 0.311
G22A U24A | 0.378

— the RNAGym collection of RNA variant scans (doi:10.7554/elife.80360)
